{"source": "the nanobody polyreactivity screen of Harvey et al. (2022)"}
{"test": "yeast display, Sf9 membrane polyspecificity reagent, FACS + sequencing; frameworks hold sequencing errors", "method_in_brief": "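A synthetic nanobody library was expressed on Saccharomyces cerevisiae BJ5465 by galactose induction for 36–48 hours. The library was stained for 1 hour at 4 °C with 10% biotinylated, detergent-solubilized Sf9 membrane reagent and enriched with streptavidin microbeads before FACS. Low and high (top ~1%) gates were set on anti-HA fluorescence for expression and streptavidin fluorescence for reagent binding, and each polyreactivity label reflects the gate of origin.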"}
{"sequence": "QDQLVESGGGLVQAGGSLRLSCAASGFIFPIYAMGWYRQAPGKERELVAGISGSGTSTYYADSVKGRFTISRDNAKNTVYFLMNSLKPEDTAVYYCNILWRGAARTRWDRGYWGLGTQVTVSS", "polyreactivity (PSR sort gate)": "high polyreactivity"}
{"sequence": "QVQLVESGGGLVQAGGSLRLSCAASGRTFGRYAMGWYRQAPGKERELVAVINGGGSTYYADSVKGRFTISRDNAKNTVYLQMKSLKPEDTAVYYCNAGYYWGQGTQVTVSS", "polyreactivity (PSR sort gate)": "high polyreactivity"}
{"sequence": "QVQLVESGGGLVQAGGSLRFSCAASGSIFDYYAMGWYRQAPGKERELVASITWSGGRTSYADSVKGRFTISRDNAKNTVYLQMNSLKPEDTAVYYCAAKLWSYAYQHKRVWYYYWGQGTQVTVSS", "polyreactivity (PSR sort gate)": "high polyreactivity"}
{"sequence": "QVQLVESGGGLVQAGGSLRLSCAASGRILGKYAMGWYRQSPGKERELVAAIRLRGGSTYYADSVKGRFTISRDNAKNTLYLQMNSLKPEDTAVYYCAARFWDRSQAYNYWGQGTQVTVSS", "polyreactivity (PSR sort gate)": "high polyreactivity"}
{"sequence": "QVQLVESGGGLVQAGGSLRLSCAASGRTFLPNPMGWYRPAPGKERELVAVITSVGSTNYADSVKGRCTISRDNAKNTVYLQMNSLKPEDTAVYFCAALKPRTRRAGFNYWGQGTQVTVSS", "polyreactivity (PSR sort gate)": "low polyreactivity"}
{"sequence": "QVQLVESGGGLVQAGGSLRLSCAASGSIFSVNAMGWYRQAPGKEREFVAGISTSGGSTYYADSVKGRFTISRDNAKNTVYLQMNSLKPEDTAVYYCAKGNFLYWQVRYYRPYKSRFYYWGQGTQVTVSS", "polyreactivity (PSR sort gate)": "low polyreactivity"}
{"sequence": "QVQLVESAGGLVQAGGSLRLSCAASGRTLTRYTMGWYRQAPGKERELVAAITSGGSTYYADSVKGRFTISRDNAKNTVYLQKNSLKPEDTAVYYCNARTPWWSFSITEYGYWGQGTLVTVSS", "polyreactivity (PSR sort gate)": "high polyreactivity"}
{"sequence": "QVQLVESGGGLVQAGGSLRLSCAASGSTFDNYAMGWYRQAPGKERELVATITSGGSITNYADSVKGRFTISRDNAKNTVYLQMYSLKPEDTAVYYCAKRRYFYYRGDYWGQGTQVTVSS", "polyreactivity (PSR sort gate)": "high polyreactivity"}
{"sequence": "QVQLVESGGVVVQAGGSLRLRCAASGITIPRYPMGWYRQAPGKERELVAAISPSGGGTYYADSVKGRFTISRDNAKNTVYLQMNSLKPEDTAVYYCAARYLGYLLSGYPPYDYWVQGTQVTVSS", "polyreactivity (PSR sort gate)": "high polyreactivity"}
{"sequence": "QVQLVESGGGLVQAGGSLRLSCAASGSTGVNTMGWYRQAPGKERELVAAIRATGGSTYYADSVKGRFTISRDNAKNTVYLQMNSLKPEDTAVYYCAARYYRSQYWYDDSWGQGTQVTVSS", "polyreactivity (PSR sort gate)": "high polyreactivity"}
{"sequence": "QVQLVESGGGLVQAGCSLRLSCAASGRTFGGNAMGWYRQAPGKERELVAAISKSGGRTYYADSVKGRFTISRDNAKNTVYLQMNSLKPEDTAVYYCNKVLSVSQAGGFDYWGQGTQVTVSS", "polyreactivity (PSR sort gate)": "high polyreactivity"}
{"sequence": "QVQLVESGGGLVQAGGSLRLSCSASGSTFYYYAMGRYIQAPGKDRELVAAISSSGGTTYYADSVKGRFTISRDNAKNTVYLQMNSLKPEDTAVYYCAAQRYPSSLYQRFYYWGQGTQVTVSS", "polyreactivity (PSR sort gate)": "high polyreactivity"}
{"sequence": "QVQLVESGGGLVQAGGSLRLSCAASGRTFVEYAMGWYRQAPGKERELVADITISGGRTYYADSVKGRFTISRDNAKNTVYLQMNSLKPEDTAVYYCNAQSYLGVTHRGYIKNGYDYWGQGTQVTVSS", "polyreactivity (PSR sort gate)": "low polyreactivity"}
{"sequence": "QVQLVESGGGLVQAGGSLRLSCAASGFIFRRYAMGWYRQAPGKERELVAAISRTGSTNYADSVKGRFTISRDNAKNTVYLKMNSLKPDDTAVYYCNARYITFNGYGYGYWGQGTQVTVSS", "polyreactivity (PSR sort gate)": "high polyreactivity"}
{"sequence": "QVQLVESGGGLVQAGGSLRLSCAASGFIFLDYAMGWYRQAPGKERELVAAISSRGARTYYADSVKGRFTISRDNAKNTVYVQMNSLKPEDTAVYYCAARGPLDRYGYWGQGTQVTVSS", "polyreactivity (PSR sort gate)": "high polyreactivity"}
{"sequence": "QVQLVESGGGLVQAGGSLRLSCAASGSIVAWYGMGWYRQAPGKERELVAAISTAGSTNYADSVKGRFTISRDNAKNTVYLQMYSLKPEDTAVHYCAKKSSWYYPERFDYWGQGTQVTVSS", "polyreactivity (PSR sort gate)": "low polyreactivity"}
{"sequence": "QVQLVESGGGLVKAGGSLRLSCAASGRTFVYYAMGWYRQAPGKERELVAAISGSGGSTYYADSVKGRFTISRDNAKNTVYLQMNSLKPEDTAVYYCAAGPRGRYRYGYWGQGTQVTVSS", "polyreactivity (PSR sort gate)": "high polyreactivity"}
